Measurements from article PMC3343272, “Asymmetric Mode of Ca^2+-S100A4 Interaction with Nonmuscle Myosin IIA Generates Nanomolar Affinity Required for Filament Remodeling” (Structure(London, England:1993), 2012).
Where “and” joins values, the source holds several entries; their conditions need not be identical. Identical values can stand only once. Like-named read-outs stand apart in the source and are kept apart here.

B1: S100A4 (natural protein)
chain: not shown
notes: S100A4; the NMR analysis speaks of residues 1-101; The His-tag is named only for the SPR experiment (two His-tags in the dimer); also called WT S100A4; u-S100A4; source: expressed and purified as described previously (Badyal et al., 2011)
B10: M200 fragment of nonmuscle myosin IIA heavy chain (Q1761-E1960) (domain or fragment, UniProt P35579 1761-1960, looked up)
chain: QINTDLNLERSHAQKNENARQQLERQNKELKVKLQEMEGTVKSKYKASITALEAKIAQLEEQLDNETKERQAACKQVRRTEKKLKDVLLQVDDERRNAEQYKDQADKASTRLKQLKRQLEEAEEEAQRANASRRKLQRELEDATETADAMNREVSSLKNKLRRGDLPFVVPRRMARKGAGDGSDEEVDGKADGAEAKPAE
notes: nonmuscle myosin IIA heavy chain, residues Q1761-E1960; forms a coiled coil and filaments; source: expressed and purified as described previously (Badyal et al., 2011)

Key:
[1] = target: B10; assay: competitive turbidity assay; 12.5 µM M200 diluted into 100 mM NaCl, 20 mM Hepes, 1 mM Mg2+, 100 µM Ca2+; turbidity at 300 nm; 25 µM S100A4 (monomer) added at 800 s, 10 µM M39 added at 1450 s; settings: both partners purified
[2] = target: the molecule itself; assay: SEC-MALLS; Superdex 75 10/300, 20 mM MES pH 6.1, 150 mM NaCl, 0.5 mM DTT, 0.7 ml/min; 75 µM M70, 150 µM M111, 50 µM S100A4, 50 µM S100A4 V77D, 50 µM S100A4 C81D loaded
[3] = target: the molecule itself; assay: as above; remark: listed apart in the source
[4] = target: T1, S100A4, wild type, Ca^2+-bound dimer (recombinant) (UniProt P26447 1-101); assay: SEC-MALS; SEC-MALLS with refractive index and absorbance detection; S100A4 and myosin fragment mixed (1:1 molar ratio for M111); settings: both partners purified
T1 construct: also called WT; u-S100A4; source: recombinant, unlabeled and 13C,15N-labeled; purified

S100A4 [5] = target: B1; assay: kinetic scheme (estimates or values required for thermodynamic balance); apo S100A4 dimer (no Ca2+ bound); values in blue in the scheme, not experimental measurements; settings: both partners purified
S100A4 [6] = target: B1; assay: competitive turbidity assay; 12.5 µM M200 diluted into 100 mM NaCl, 20 mM Hepes, 1 mM Mg2+, 100 µM Ca2+; turbidity at 300 nm; 25 µM S100A4 (monomer) added at 800 s, 10 µM M39 added at 1450 s; settings: both partners purified
S100A4 [7] = target: B1; assay: kinetic scheme (estimates or values required for thermodynamic balance); S100A4 dimer with a single Ca2+ bound; values in blue in the scheme, not experimental measurements; settings: both partners purified
S100A4 [8] = target: B1; assay: stopped-flow Quin-2 fluorescence (Ca2+ dissociation); M39 premixed with 13 µM S100A4 (monomer concentration) and 50 µM Ca2+, mixed with 100 µM Quin-2; 20 mM NaCl, 10 mM Hepes, 1 mM MgCl2, pH 7.5, 20 °C; amplitude of the fast phase against [M39]; mutants with up to 50 µM M39; settings: both partners purified
S100A4 [9] = target: B1; assay: SPR; Biacore X100, S100A4 (0.5 µM) coupled by its His-tags to a Ni-NTA chip; M39 at 1, 3, 9 and 27 nM; 20 mM MES pH 6.1, 150 mM NaCl, 5 mM CaCl2, 0.5 mM TCEP, 50 µM EDTA, 0.005% Surfactant P20; fit to 1:1 Langmuir model; settings: both partners purified
[10] = target: T1, S100A4, wild type, Ca^2+-bound dimer …; assay: kinetic assays; kinetic assays similar to those of Badyal et al., 2011 (Figures S1I–S1L); settings: both partners purified
[11] = target: T1, S100A4, wild type, Ca^2+-bound dimer …; assay: ITC + SPR + other: kinetic assays; limit that the paper gives as compatible with all its methods; settings: both partners purified
[12] = target: T1, S100A4, wild type, Ca^2+-bound dimer …; assay: ITC; 10 μM S100A4 in the cell, 75 μM M39 in the syringe; single site-binding model; the paper calls the KD an upper limit; settings: both partners purified
[13] = target: T2, S100A4 V77D mutant (studied in vitro) (UniProt P26447 1-101, V77D); assay: NMR titration; S100A4 V77D and C81D mutants (Figures S3C and S3D); the myosin fragment is not given; settings: both partners purified
T2 construct: Parent: m1

[14] = target: T3, S100A4 C81D mutant (studied in vitro) (UniProt P26447 1-101, C81D); assay: as above; settings: both partners purified
T3 construct: Parent: m1

[15] = target: T1, S100A4, wild type, Ca^2+-bound dimer …; assay: SPR; sensorgrams at nanomolar concentrations of M39; simultaneous fit to a single site-binding model; n = 3; settings: both partners purified
[16] = target: the molecule itself; assay: competitive turbidity assay; 12.5 µM M200 diluted into 100 mM NaCl, 20 mM Hepes, 1 mM Mg2+, 100 µM Ca2+; turbidity at 300 nm; 25 µM S100A4 (monomer) added at 800 s, 10 µM M39 added at 1450 s

B1: binds [1].

B2: S100A4 C81D (natural protein)
chain: not shown
notes: source: expressed and purified as described previously (Badyal et al., 2011)
B2 was tested, and the “stoichiometry N” value [2] was 2.

B3: M70 fragment of nonmuscle myosin IIA heavy chain (residues A1868-G1938) (domain or fragment, UniProt P35579 1868-1938, looked up)
chain: ASTRLKQLKRQLEEAEEEAQRANASRRKLQRELEDATETADAMNREVSSLKNKLRRGDLPFVVPRRMARKG
notes: nonmuscle myosin IIA heavy chain, residues A1868-G1938; small print, not read surely; also called u-M70; 15N-M70; source: recombinant; expressed and purified as described previously (Badyal et al., 2011)
With B3 the “stoichiometry N” value [3] was 2.

B4: M70, nonmuscle myosin IIA heavy chain fragment (residues A1868–G1938) (domain or fragment, UniProt P35579 1868-1938, looked up)
chain: ASTRLKQLKRQLEEAEEEAQRANASRRKLQRELEDATETADAMNREVSSLKNKLRRGDLPFVVPRRMARKG
notes: nonmuscle myosin IIA (NMIIA) heavy chain, residues A1868-G1938; also called u-M70; 13C,15N-M70; source: recombinant, unlabeled, 15N-labeled and 13C,15N-labeled
For B4, the “stoichiometry N” value [4] was 0.5 myosin fragment per S100A4 subunit.

B5: S100A4 V77D (natural protein)
chain: MACPLEKALDVMVSTFHKYSGKEGDKFKLNKSELKELLTRELPSFLGKRTDEAAFQKLMSNLDSNRDNEVDFQEYCDFLSCIAMMCNEFFEGFPDKQPRKK
notes: as for B2
With B5 the “stoichiometry N” value [2] was 2.

B6: M39 peptide of nonmuscle myosin IIA heavy chain (residues Q1897-A1935) (peptide)
peptide: QRELEDATETADAMNREVSSLKNKLRRGDLPFVVPRRMA
notes: nonmuscle myosin IIA heavy chain (NM-MHC IIA), residues Q1897-A1935; also called u-M39; WT M39; source: synthetic peptide; bought: GL Biochem Ltd (Shanghai, China), purity >95% by HPLC
B6 was tested, and the Kd (S100A4 [5]) was 10 mM, the Kd (S100A4 [6]) was under 10 nM and the Kd (S100A4 [7]) was 1000 nM. The Kd (S100A4 [8]) was under 500 nM, the “stoichiometry N” value (S100A4 [8]) was 2.6 S100A4 monomers per M39 and the Kd (S100A4 [9]) was 0.4 nM.

B7: M39, nonmuscle myosin IIA heavy chain peptide (residues Q1897–A1935) (peptide, UniProt P35579 1897-1935, looked up)
peptide: QRELEDATETADAMNREVSSLKNKLRRGDLPFVVPRRMA
notes: nonmuscle myosin IIA (NMIIA) heavy chain, residues Q1897-A1935; Unmodified (no fluorescent label); also called u-M39; source: synthetic peptide
In the case of B7, the Kd [10] is reported as about 0.1 nM, the Kd [11] is reported as at most 1 nM and the Kd [12] is reported as 5.9 nM and 4 nM. For the same binder, the “stoichiometry N” value [12] was 0.55 ± 0.06 M39/S100A4, the Kd [13] was about 100 µM and the Kd [14] was about 100 µM. The Kd [15] was 0.24 ± 0.07 nM.

B8: M111 fragment of nonmuscle myosin IIA heavy chain (residues Q1850-E1960) (domain or fragment, UniProt P35579 1850-1960, looked up)
chain: QVDDERRNAEQYKDQADKASTRLKQLKRQLEEAEEEAQRANASRRKLQRELEDATETADAMNREVSSLKNKLRRGDLPFVVPRRMARKGAGDGSDEEVDGKADGAEAKPAE
notes: nonmuscle myosin IIA heavy chain, residues Q1850-E1960; source: expressed and purified as described previously (Badyal et al., 2011)
B8 was tested, and the “stoichiometry N” value [3] was 2.

B9: M111, nonmuscle myosin IIA heavy chain fragment (residues Q1850–E1960) (domain or fragment, UniProt P35579 1850-1960, looked up)
chain: QVDDERRNAEQYKDQADKASTRLKQLKRQLEEAEEEAQRANASRRKLQRELEDATETADAMNREVSSLKNKLRRGDLPFVVPRRMARKGAGDGSDEEVDGKADGAEAKPAE
notes: nonmuscle myosin IIA (NMIIA) heavy chain, residues Q1850-E1960
In the case of B9, the “stoichiometry N” value [4] is reported as 0.5 myosin fragment per S100A4 subunit.

B10: binds [16].
